Where “and” joins values, the source holds several entries; their conditions need not be identical. Equal values may be shown once. Read-outs that look alike come from different tables or passages of the source.

Assay [1] has as its target T1, human Protein S (human, UniProt P07225 42-676).
T1 construct: Called 'full length Protein S' / 'human full-length Protein S'; It was coated on plates (ELISA), Eu-labeled (LANCE) or immobilized on a chip (Biacore); also called PS; full length Protein S
T1 sequence: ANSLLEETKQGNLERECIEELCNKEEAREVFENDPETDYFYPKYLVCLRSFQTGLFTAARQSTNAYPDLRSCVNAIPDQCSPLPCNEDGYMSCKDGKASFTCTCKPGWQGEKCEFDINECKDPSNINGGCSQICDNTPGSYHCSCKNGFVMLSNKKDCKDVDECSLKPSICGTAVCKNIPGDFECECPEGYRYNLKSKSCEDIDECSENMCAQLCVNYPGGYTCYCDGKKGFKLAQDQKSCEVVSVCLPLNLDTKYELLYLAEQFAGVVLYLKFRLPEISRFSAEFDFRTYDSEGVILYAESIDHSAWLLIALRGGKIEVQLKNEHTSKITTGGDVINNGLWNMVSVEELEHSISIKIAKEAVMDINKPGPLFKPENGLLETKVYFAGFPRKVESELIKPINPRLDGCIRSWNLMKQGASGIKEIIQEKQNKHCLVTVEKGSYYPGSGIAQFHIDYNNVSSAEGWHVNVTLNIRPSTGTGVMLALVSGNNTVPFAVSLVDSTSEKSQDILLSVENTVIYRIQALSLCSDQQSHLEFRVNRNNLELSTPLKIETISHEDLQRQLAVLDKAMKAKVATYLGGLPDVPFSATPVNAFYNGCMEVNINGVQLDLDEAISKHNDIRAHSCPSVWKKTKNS
Briefly: Biacore and LANCE IC50. (In general: SPR reads the build-up and loss of mass on a sensor chip optically.)

For assay [2], the target named is T2, human Protein S (UniProt P07225 42-676).
T2 chain: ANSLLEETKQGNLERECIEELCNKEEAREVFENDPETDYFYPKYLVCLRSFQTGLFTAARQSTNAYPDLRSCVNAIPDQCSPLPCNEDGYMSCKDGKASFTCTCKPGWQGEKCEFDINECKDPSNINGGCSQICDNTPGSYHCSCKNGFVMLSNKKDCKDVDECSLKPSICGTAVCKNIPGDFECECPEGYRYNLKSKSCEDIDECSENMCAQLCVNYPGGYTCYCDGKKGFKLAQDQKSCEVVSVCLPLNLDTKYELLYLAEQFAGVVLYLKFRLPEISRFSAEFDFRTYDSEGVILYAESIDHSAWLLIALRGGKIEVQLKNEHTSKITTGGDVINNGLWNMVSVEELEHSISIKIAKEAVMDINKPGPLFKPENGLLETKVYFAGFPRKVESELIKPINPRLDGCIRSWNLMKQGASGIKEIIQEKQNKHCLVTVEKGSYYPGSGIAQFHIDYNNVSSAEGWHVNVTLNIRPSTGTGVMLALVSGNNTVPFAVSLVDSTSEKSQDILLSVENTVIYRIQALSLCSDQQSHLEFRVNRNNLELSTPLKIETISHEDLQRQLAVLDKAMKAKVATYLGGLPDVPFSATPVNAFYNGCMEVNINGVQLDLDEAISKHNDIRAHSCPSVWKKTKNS
The experiment in a line: LANCE competition. The gist of the method: (§1)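 This homogeneous time-resolved FRET competition assay (LANCE) used europium-labelled Protein S, ULight-labelled streptavidin and a biotinylated tracer peptide, with unlabelled test peptide titrated in three-fold steps. Final concentrations were 10 nM Protein S, 100 nM streptavidin and 300 nM tracer in 50 µl (or 2 nM Protein S and 60 nM tracer on a Tecan F500). Samples were incubated 1 hour at room temperature and read at Ex 340 nm, Em 665 nm. IC50 came from non-linear regression of the 665 nm signals.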

The target of assay [3] is T2, human Protein S. Briefly: LANCE competition. The gist of the method: as §1
(In general: Time-resolved FRET reads energy transfer from a long-lived donor to a nearby acceptor.)

The target in assay [4] is T2, human Protein S. Briefly: LANCE competition. The method in brief:
as §1

The term IC50 denotes the point on the concentration scale where inhibition reaches its midpoint. A higher IC50 goes with a need for much substance. In the case of Ac-EYYVTAGWYDYNTDTYYEFE-NH2 [JBS3232], the binding result with human Protein S [1] was “binds”. For the same molecule, the half-maximal inhibitory concentration (IC50) in the assay with human Protein S [2] came out at 0.9 nM.
On to Ac-EGYVSAGWYDYNQDIYFEFA-NH2 [JBS3260], for which, in the assay with human Protein S [1], the binding result is “binds”. In the assay with human Protein S [3], the IC50 is 1.6 nM.
Take Ac-DVHVSAGWYDYNKDIYYEFT-NH2 [JBS3296]: the binding result with human Protein S [1] is on record as “binds”. In the assay with human Protein S [2], this molecule displayed an IC50 of 2.2 nM.
Regarding Ac-YGIVSAGWYDMNNDYYFEFY-NH2 [JBS3258], the binding result with human Protein S [1] is “binds”. Moreover, in the assay with human Protein S [3], the IC50 was 0.8 nM and 0.9 nM.
On to Ac-EVIVSAGWYDYNNDIYYEFW-NH2 [JBS3274], for which the binding result with human Protein S [1] is reported as “binds”. This molecule registered an IC50 in the assay with human Protein S [2] of 1 nM.
For Ac-EYYVEAGWYEYNTDNYYPFE-NH2 [JBS3236], in that order: “binds” and 2.6 nM.
As to Ac-ESYVSAGWYDYNTDTYYEFF-NH2 [JBS3223], the binding result with human Protein S [1] was “binds”. The molecule further showed an IC50 with human Protein S [2] of 0.7 nM.
For the molecule Ac-EYYVSAGWYDYMTDTYTEFE-NH2 [JBS3235], in the assay with human Protein S [1], the binding result is “binds”. Besides, the IC50 with human Protein S [2] was determined as 1.4 nM.
As to Ac-EYYVSAGWYDYNNDIYYEFE-NH2 [JBS3218], the binding result with human Protein S [1] is “binds”. The IC50 with human Protein S [2] was found to be 0.9 nM.
As for Ac-YGIVSAGWYDYNTDTYYEFY-NH2 [JBS3221], the binding result with human Protein S [1] is “binds”. This molecule displayed a half-maximal inhibitory concentration (IC50) with human Protein S [4] of 0.6 nM.
